“Also recorded” adds a separate entry of the source.
Tests used:
p97 = settings: qualitative pulldown; ref [29]; cited from earlier work
From the text: The PIM binding pockets of UBXD1-PUB and its closest homologue PNGase-PUB and the position of the p97-PIM peptide inside the pocket are almost identical, with small differences (Figure 6 and Figure 7). The side chains of the conserved UBXD1-Y181 and PNGase-Y38 are in the same position, stacking with p97-Y805 and forming a putative H-bond (3.2 or 3.1 Å, respectively) to the backbone carbonyl of p97-L804. UBDXD1-Y194 and PNGase-Y51, which represent the second conserved tyrosine of the PIM pocket, both stack with p97-Y805 and are only slightly shifted with respect to each other. However, the intr ...

p97-C10 peptide = assay: Fluorescence anisotropy, UBXD1-PUB constructs titrated to 5,6-FAM labeled p97-C10 peptide; assay type: binding; settings: for Kd: UBXD1-PUB (150–264) mutants titrated to 5,6-FAM labeled p97-C10 peptide (100 nM), 50 mM NaKPi, pH 6.5, 25 °C, fluorescence anisotropy ex 495/em 518 nm, fit of averaged triplicates ± standard deviation of the fit; for change in p97 binding affinity versus wild type, in words / fold change in KD / affinity versus wild type: UBXD1-PUB mutant vs wt, p97-C10, fluorescence anisotropy
From the text: N-terminal hexahistidine-tagged UBXD1-PUB (150–264) was cloned into a pET28a expression vector using the NdeI and HindIII restriction sites. UBXD1 point mutants were produced by site-directed mutagenesis following the Quikchange protocol (Agilent Technologies).
Unlabeled p97-C10 ([…]), p97-C13 ([…]), and phosphorylated p97-C13 ([…]pYG) peptides for NMR and ITC as well as 5,6-FAM-labeled peptides for fluorescence studies were purchased from Caslo ApS (Denmark).
(§1) Fluorescence anisotropy measurements (excitation: 495 nm; emission 518 nm) were carried out on a JASCO FP-8300 fluorescence spectrometer in 50 mM NaKPi, pH 6.5 at 25 °C, titrating PUB constructs to 5,6-FAM labeled p97-C10 peptide (100 nM). All titrations were performed in triplicate. Binding curves of the averaged data were fitted with GraphPad Prism 5.0 (GraphPad) using the quadratic binding equation for a one-site specific binding model:(3) r=r0+rmax⋅(F+x+KD)−(F+x+KD)^2−4⋅x⋅F/2⋅F, with r = anisotropy, r0 = anisotropy without protein, rmax = maximum anisotropy, F = fluorescent probe (labeled peptide or protein) concentration, x = titrant protein concentration, and KD = dissociation constant.
(§2) Data points are shown as means ± standard deviation based on the three experiments. KD values are given as fit of the averaged data points ± standard deviation of the fit.

[1] = CD spectroscopy, secondary structure composition; assay type: physicochemical; settings: 0.15 mg/mL protein, 50 mM NaKPi pH 6.5, 25 °C; for α-helical content: 25 scans averaged, DichroWeb CDSSTR
Protocol: CD spectra were recorded on a Jasco J-170 CD spectrometer in a 1 mm quartz cuvette at 25 °C averaging 25 scans. Samples consisted of 0.15 mg/mL protein in 50 mM NaKPi, pH 6.5. The secondary structure composition was analyzed using DichroWeb (http://dichroweb.cryst.bbk.ac.uk) employing the CDSSTR algorithm.

full-length p97 (p97-fl) = assay: Fluorescence anisotropy, UBXD1-PUB with full-length p97; assay type: binding; settings: isolated PUB domain of UBXD1
Protocol: as §1, §2

| Molecule | Kd (p97-C10 peptide) | change in p97 binding affinity versus wild type, in words (p97-C10 peptide) | also measured |
| --- | --- | --- | --- |
| PNGase K50A, Y51A double mutant: PNGase double mutant (protein, UniProt Q96IV0 2-654, looked up, variant K50A Y51A) Peptide-N(4)-(N-acetyl-beta-gl …: AAAALGSSSGSASPAVAELCQNTPETFLEASKLLLTYADNILRNPNDEAARSIRIGNTAFSTRLLPVRGAVECLFEMGFEEGETHLIFPKKASVEQLQKIRDLIAIERSSRLDGSNKSHKVKSSQQPAASTQLPTTPSSNPSGLNQHTRNRQGQSSDPPSASTVAADSAILEVLQSNIQHVLVYENPALQEKALACIPVQELKRKSQEKLSRARKLDKGINISDEDFLLLELLHWFKEEFFHWVNNVLCSKCGGQTRSRDRSLLPSDDELKWGAKEVEDHYCDACQFSNRFPRYNNPEKLLETRCGRCGEWANCFTLCCRAVGFEARYVWDYTDHVWTEVYSPSQQRWLHCDACEDVCDKPLLYEIGWGKKLSYVIAFSKDEVVDVTWRYSCKHEEVIARRTKVKEALLRDTINGLNKQRQLFLSENRRKELLQRIIVELVEFISPKTPKPGELGGRISGSVAWRVARGEMGLQRKETLFIPCENEKISKQLHLCYNIVKDRYVRVSNNNQTISGWENGVWKMESIFRKVETDWHMVYLARKEGSSFAYISWKFECGSVGLKVDSISIRTSSQTFQTGTVEWKLRSDTAQVELTGDNSLHSYADFSGATEVILEAELSRGDGDVAWQHTQLFRQSLNDHEENCLEIIIKFSDL | – | – | binding in pulldown assay (p97): did not show impaired binding |
| N201D: UBXD1-PUB point mutant (protein, left off: His6, N-terminal, cleaved, UBXD1-PUB point mutant) STDPVAASIMKIYTFNKDQDRVKLGVDTIAKYLDNIHLHPEEEKYRKIKLQDKVFQERINCLEGTHEFFEAIGFQKVLLPAQDQEDPEEFYVLSETTLAQPQSLERHKEQLLAAE | 280 ± 3 µM | largest decrease in binding affinity | – |
| R207E: UBXD1-PUB point mutant (protein, left off: His6, N-terminal, cleaved, UBXD1-PUB point mutant) STDPVAASIMKIYTFNKDQDRVKLGVDTIAKYLDNIHLHPEEEKYRKIKLQNKVFQEEINCLEGTHEFFEAIGFQKVLLPAQDQEDPEEFYVLSETTLAQPQSLERHKEQLLAAE | 88 ± 1 µM | – | fold change in KD / affinity versus wild type (p97-C10 peptide): six; fold change in KD / affinity versus wild type (p97-C10 peptide; listed as R207 to E): 6 fold |
| E206R: UBXD1-PUB point mutant (protein, left off: His6, N-terminal, cleaved, UBXD1-PUB point mutant) STDPVAASIMKIYTFNKDQDRVKLGVDTIAKYLDNIHLHPEEEKYRKIKLQNKVFQRRINCLEGTHEFFEAIGFQKVLLPAQDQEDPEEFYVLSETTLAQPQSLERHKEQLLAAE | 39.4 ± 0.9 µM | – | – |
| Y181A: UBXD1-PUB point mutant (protein, left off: His6, N-terminal, cleaved, UBXD1-PUB point mutant) STDPVAASIMKIYTFNKDQDRVKLGVDTIAKALDNIHLHPEEEKYRKIKLQNKVFQERINCLEGTHEFFEAIGFQKVLLPAQDQEDPEEFYVLSETTLAQPQSLERHKEQLLAAE | 111 ± 2 µM | largest decrease in binding affinity | – |
| N201A: UBXD1-PUB point mutant (protein, left off: His6, N-terminal, cleaved, UBXD1-PUB point mutant) STDPVAASIMKIYTFNKDQDRVKLGVDTIAKYLDNIHLHPEEEKYRKIKLQAKVFQERINCLEGTHEFFEAIGFQKVLLPAQDQEDPEEFYVLSETTLAQPQSLERHKEQLLAAE | 64.1 ± 0.8 µM | – | fold change in KD / affinity versus wild type (p97-C10 peptide): 5 fold |
| N184A: UBXD1-PUB point mutant (protein, left off: His6, N-terminal, cleaved, UBXD1-PUB point mutant) STDPVAASIMKIYTFNKDQDRVKLGVDTIAKYLDAIHLHPEEEKYRKIKLQNKVFQERINCLEGTHEFFEAIGFQKVLLPAQDQEDPEEFYVLSETTLAQPQSLERHKEQLLAAE | 28.7 ± 0.5 µM | – | – |
| N184D: UBXD1-PUB point mutant (protein, left off: His6, N-terminal, cleaved, UBXD1-PUB point mutant) STDPVAASIMKIYTFNKDQDRVKLGVDTIAKYLDDIHLHPEEEKYRKIKLQNKVFQERINCLEGTHEFFEAIGFQKVLLPAQDQEDPEEFYVLSETTLAQPQSLERHKEQLLAAE | 80 ± 2 µM | – | – |
| Q200A: UBXD1-PUB point mutant (protein, left off: His6, N-terminal, cleaved, UBXD1-PUB point mutant) STDPVAASIMKIYTFNKDQDRVKLGVDTIAKYLDNIHLHPEEEKYRKIKLANKVFQERINCLEGTHEFFEAIGFQKVLLPAQDQEDPEEFYVLSETTLAQPQSLERHKEQLLAAE | 8.3 ± 0.3 µM | do not show a decreased affinity | – |
| K193E: UBXD1-PUB point mutant (protein, left off: His6, N-terminal, cleaved, UBXD1-PUB point mutant) STDPVAASIMKIYTFNKDQDRVKLGVDTIAKYLDNIHLHPEEEEYRKIKLQNKVFQERINCLEGTHEFFEAIGFQKVLLPAQDQEDPEEFYVLSETTLAQPQSLERHKEQLLAAE | 17.7 ± 0.4 µM | do not show a decreased affinity | – |
| K198E: UBXD1-PUB point mutant (protein, left off: His6, N-terminal, cleaved, UBXD1-PUB point mutant) STDPVAASIMKIYTFNKDQDRVKLGVDTIAKYLDNIHLHPEEEKYRKIELQNKVFQERINCLEGTHEFFEAIGFQKVLLPAQDQEDPEEFYVLSETTLAQPQSLERHKEQLLAAE | 49.3 ± 0.8 µM | – | – |
| V203A: UBXD1-PUB point mutant (protein, left off: His6, N-terminal, cleaved, UBXD1-PUB point mutant) STDPVAASIMKIYTFNKDQDRVKLGVDTIAKYLDNIHLHPEEEKYRKIKLQNKAFQERINCLEGTHEFFEAIGFQKVLLPAQDQEDPEEFYVLSETTLAQPQSLERHKEQLLAAE | 25.3 ± 0.5 µM | – | – |
| Y181F: UBXD1-PUB point mutant (protein, left off: His6, N-terminal, cleaved, UBXD1-PUB point mutant) STDPVAASIMKIYTFNKDQDRVKLGVDTIAKFLDNIHLHPEEEKYRKIKLQNKVFQERINCLEGTHEFFEAIGFQKVLLPAQDQEDPEEFYVLSETTLAQPQSLERHKEQLLAAE | 28.4 ± 0.6 µM | – | – |
| Y194A: UBXD1-PUB point mutant (protein, left off: His6, N-terminal, cleaved, UBXD1-PUB point mutant) STDPVAASIMKIYTFNKDQDRVKLGVDTIAKYLDNIHLHPEEEKARKIKLQNKVFQERINCLEGTHEFFEAIGFQKVLLPAQDQEDPEEFYVLSETTLAQPQSLERHKEQLLAAE | 53 ± 2 µM | large decrease in affinity | α-helical content [1]: 30%; folding / secondary structure, in words ([1]; compared with wild type): partial loss of secondary structure |
| Y194F: UBXD1-PUB point mutant (protein, left off: His6, N-terminal, cleaved, UBXD1-PUB point mutant) STDPVAASIMKIYTFNKDQDRVKLGVDTIAKYLDNIHLHPEEEKFRKIKLQNKVFQERINCLEGTHEFFEAIGFQKVLLPAQDQEDPEEFYVLSETTLAQPQSLERHKEQLLAAE | 141 ± 2 µM | largest decrease in binding affinity; also recorded: large decrease in affinity | α-helical content [1]: 50% |
| wild type (wt): N-terminal hexahistidine-tagged UBXD1-PUB (150–264), tag cleaved with thrombin (protein, left off: His6, N-terminal, cleaved, N-terminal hexahistidine-tagged UBXD1-PUB (150–264), tag cleaved with thrombin) STDPVAASIMKIYTFNKDQDRVKLGVDTIAKYLDNIHLHPEEEKYRKIKLQNKVFQERINCLEGTHEFFEAIGFQKVLLPAQDQEDPEEFYVLSETTLAQPQSLERHKEQLLAAE | 13.8 ± 0.3 µM | – | affinity for full-length p97 relative to isolated PIM peptides (full-length p97 (p97-fl)): same range as for the isolated PIM peptides; α-helical content [1]: 80% |

From paper PMC6995525, “Structure of the PUB Domain from Ubiquitin Regulatory X Domain Protein 1 (UBXD1) and Its Interaction with the p97 AAA+ ATPase” (Biomolecules, 2019)
